{
  "source": "patent US20160102323",
  "about": "“A LAGLIDADG HOMING ENDONUCLEASE CLEAVING THE C-C CHEMOKINE RECEPTOR TYPE-5 (CCR5) GENE AND USES THEREOF” (CELLECTIS, published 2016)",
  "binders": {"B1": {"name": "CCR5_S08 target (dsDNA)", "DNA 1": "CTTCCAGGAATTCTTTGGCCTG", "DNA 2": "CAGGCCAAAGAATTCCTGGAAG"}, "B2": {"name": "CCR5_S02 target (dsDNA)", "DNA 1": "ATGAAGAAGATTCCAGAGAAGA", "DNA 2": "TCTTCTCTGGAATCTTCTTCAT"}, "B3": {"name": "I-OnuI native target (dsDNA)", "DNA 1": "TTTCCACTTATTCAACCTTTTA", "DNA 2": "TAAAAGGTTGAATAAGTGGAAA"}},
  "assay_in_all_cases": "flow; yeast surface display titration; unit as printed (uM)",
  "key": {"[1]": {"biological_target": "T1, CCR5_S08_1B6 I-OnuI variant (artificial (I-OnuI derived))", "T1 chain": "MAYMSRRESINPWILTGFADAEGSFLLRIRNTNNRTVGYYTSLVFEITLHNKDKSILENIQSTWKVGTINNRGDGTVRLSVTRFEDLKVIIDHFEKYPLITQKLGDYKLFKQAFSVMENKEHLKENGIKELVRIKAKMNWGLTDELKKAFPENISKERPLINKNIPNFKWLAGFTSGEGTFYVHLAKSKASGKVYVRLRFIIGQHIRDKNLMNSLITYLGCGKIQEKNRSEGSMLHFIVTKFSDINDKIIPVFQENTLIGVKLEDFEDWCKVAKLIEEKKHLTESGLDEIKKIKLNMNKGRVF", "settings": "label: Alexa Fluor 647 / biotin in cleavage assay", "experimental": "(§1) The LHEs containing the engineered DNA recognition interfaces for the CCR5_S02 (SEQ ID NO: 3) and CCR5_S08 (SEQ ID NO: 5) targets were tested for affinity, specificity, and toxicity characteristics. Affinity was tested by independently incubating yeast displaying the CCR5_S02_1F5 variant, (SEQ ID NO: 09 encoding SEQ ID NO: 10), and the CCR5_S08_1B6 variant (SEQ ID NO: 11 encoding SEQ ID NO: 12), with DNA substrates containing their target sequences at various concentrations. See FIG. 4 showing the affinity properties of these two variants relative to the wild-type I-OnuI protein. […] Specificity was tested by analyzing the relative ability of each LHE to cleave target sequences containing each of the three alternate DNA base pairs at each position along the substrate. See FIG. 5 illustrating the specificity profile of the CCR5_S02_1F5 and CCR5_S08_1B6 variants. […] Toxicity was analyzed by in vitro transcribing each LHE into mRNA and transfecting primary human T cells by electroporation, followed by flow cytometry analysis of the survival of the cells relative to transfection with a control mRNA encoding a blue fluorescent protein (BFP). See FIG. 6 showing flow cytometry analysis of primary human T cells after treatment with the CCR5_S02_1F5 and CCR5_S08_1B6 variants."}, "[2]": {"biological_target": "T2, CCR5_S02_1F5 I-OnuI variant (artificial (I-OnuI derived))", "T2 chain": "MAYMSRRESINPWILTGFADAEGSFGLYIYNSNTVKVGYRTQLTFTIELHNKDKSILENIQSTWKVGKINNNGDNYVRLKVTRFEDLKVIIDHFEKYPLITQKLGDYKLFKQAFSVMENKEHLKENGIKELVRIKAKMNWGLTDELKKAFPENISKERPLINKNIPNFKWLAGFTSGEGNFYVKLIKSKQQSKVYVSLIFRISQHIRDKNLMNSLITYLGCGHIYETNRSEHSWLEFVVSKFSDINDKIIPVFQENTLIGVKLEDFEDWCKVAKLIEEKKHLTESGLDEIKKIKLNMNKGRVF", "settings": "label: Alexa Fluor 647 / biotin in cleavage assay", "experimental": "as §1"}, "[3]": {"biological_target": "T3, I-OnuI (wild type) (Ophiostoma novo-ulmi)", "T3 chain": "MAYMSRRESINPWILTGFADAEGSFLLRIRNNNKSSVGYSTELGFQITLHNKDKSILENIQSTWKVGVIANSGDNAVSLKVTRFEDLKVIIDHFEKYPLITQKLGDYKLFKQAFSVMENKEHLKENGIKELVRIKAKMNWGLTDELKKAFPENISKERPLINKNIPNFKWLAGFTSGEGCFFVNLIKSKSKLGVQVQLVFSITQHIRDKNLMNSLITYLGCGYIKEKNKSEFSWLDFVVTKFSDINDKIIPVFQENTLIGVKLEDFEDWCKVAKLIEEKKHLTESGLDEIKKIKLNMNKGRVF", "settings": "label: fluorescent dye", "experimental": "as §1"}},
  "data": [
    {"binder": "B1", "values": [
      {"measurement": "Kd", "setting": "[1]", "result": "~20", "unit": "µM"}
    ]},
    {"binder": "B2", "values": [
      {"measurement": "Kd", "setting": "[2]", "result": "~35", "unit": "µM"}
    ]},
    {"binder": "B3", "values": [
      {"measurement": "Kd", "setting": "[3]", "result": "~80", "unit": "µM"}
    ]}
  ]
}
